Experimental data reported in US20160002619A1 (CORNELL UNIVERSITY, published 2016).
Substitutions are numbered along the chain they refer to. Names may count otherwise.

T1: ALEXA FLUOR 488-labeled mouse GAC D391K (constitutive dimer mutant) (mouse, UniProt D3Z7P3 72-555, ALEXA FLUOR 488 succinimidyl ester covalently attached to a lysine amino group within the glutaminase domain (exact residue not given))
T1 sequence: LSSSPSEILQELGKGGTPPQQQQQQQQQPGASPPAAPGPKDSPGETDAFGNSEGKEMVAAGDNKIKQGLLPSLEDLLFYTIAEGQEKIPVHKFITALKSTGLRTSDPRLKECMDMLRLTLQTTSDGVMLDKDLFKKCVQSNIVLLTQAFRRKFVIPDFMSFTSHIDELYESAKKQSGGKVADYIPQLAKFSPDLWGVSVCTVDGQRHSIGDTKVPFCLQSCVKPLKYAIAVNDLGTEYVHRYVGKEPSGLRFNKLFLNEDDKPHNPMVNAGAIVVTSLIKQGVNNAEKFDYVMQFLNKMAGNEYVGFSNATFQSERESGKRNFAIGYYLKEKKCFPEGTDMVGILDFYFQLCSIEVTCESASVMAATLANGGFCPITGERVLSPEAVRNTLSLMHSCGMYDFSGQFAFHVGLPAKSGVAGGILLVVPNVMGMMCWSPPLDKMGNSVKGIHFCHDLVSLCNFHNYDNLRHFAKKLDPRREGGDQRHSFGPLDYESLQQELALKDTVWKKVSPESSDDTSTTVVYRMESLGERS

T2: ALEXA FLUOR 488-labeled wild type mouse GAC (glutaminase C, residues 72-603) (mouse, UniProt D3Z7P3 72-555, ALEXA FLUOR 488 succinimidyl ester covalently attached to a lysine amino group within the glutaminase domain (exact residue not given))
T2 construct: Recombinant from pET23a with an N-terminal His-tag and thrombin site; The tag was cleaved with thrombin; The oligomeric state (monomer/dimer/tetramer) depends on concentration
T2 sequence: T1 sequence with K320D

B1: QSY 9-labeled mouse GAC D391K (constitutive dimer mutant) (enzyme)
chain: T1 sequence
modifications: QSY 9 succinimidyl ester covalently attached to a lysine amino group (exact residue not given)
notes: also called QSY 9-D391K-GAC; QSY 9-GAC (D391K) dimer mutant
B2: QSY 9-labeled mouse GAC K316E/D391K/R459E (constitutive monomer mutant) (enzyme)
chain: T1 sequence with K245E, R388E
modifications: QSY 9 succinimidyl ester covalently attached to a lysine amino group (exact residue not given)
notes: also called QSY 9-K316E-D391K-R459E; QSY 9-GAC (K316E, D391K, R459E) monomer mutant

Columns and labels:
[1] = molecular target: T1, ALEXA FLUOR 488-labeled mouse GAC D391K …; experiment: FRET: 5 nM 488-D391K-GAC titrated with QSY 9-D391K-GAC, fit to a simple ligand binding equation; monomer-monomer association to a dimer
Source text: FIGS. 10A-B illustrate measuring of the monomer-monomer binding affinity. […] In FIG. 10B, FRET values from FIG. 10A were plotted in a sigma plot and fit to non-linear regression simple ligand binding equation (line).

[2] = molecular target: T2, ALEXA FLUOR 488-labeled wild type mouse …; experiment: FRET time course: 200 nM QSY 9-labeled GAC added to 20 nM 488-WT-GAC
Experimental: Upon elution, light scattering data was collected and then used to calculate the molecular weight and polydispersity for the species eluted (right axis). Reference lines for the molecular weights of the monomer, dimer, and tetramer forms of GAC are included at 58 kD, 116 kD, and 230 kD respectively. […] In FIG. 4F, WT GAC and GAC mutants were titrated and added to an assay of 20 mM glutamine in the absence of phosphate to show no concentration dependent activation was observed of purified GAC mutants.
Fluorescence experiments were performed using a Varian Carry Eclipse Fluorometer in the counting mode. Excitation and emission wavelengths were 490 and 520 nm, respectively. Experiments were all prepared as one-mL samples and stirred continuously at 20° C. in 50 mM Tris-Acetate pH 8.5, 0.1 mM ethylenediaminetetraacetic acid (EDTA). […] Both BPTES and 968 were prepared in DMSO, and appropriate dilutions were made so that less than 2% (v/v) DMSO was added to an experimental sample.

Binder | Kd [1] [nM] | binding result [2]
B1 | 2.5 | 
B2 |  | no binding (tested: 200 nM)
